Where a chain is given by its changes, count along the chain named.
How the values were obtained:
[1] = target: T1, PB_(Cdc24) (Saccharomyces cerevisiae, UniProt P11433 668-854); test: SPR; Biacore X100; PB_(Bem1)-SNAP labelled with BG-Biotin and captured on a CM5 chip coated with anti-biotin antibody; PB_(Cdc24) as analyte; HBSEP (10 mM HEPES, 150 mM NaCl, 3 mM EDTA, 0.05% Tween 20, pH 7.4); settings: both partners purified
T1 construct: also called Cdc24 PB domain; source: E. coli BL21DE3, purified (IMAC, optional size exclusion chromatography)
T1 sequence (looked up): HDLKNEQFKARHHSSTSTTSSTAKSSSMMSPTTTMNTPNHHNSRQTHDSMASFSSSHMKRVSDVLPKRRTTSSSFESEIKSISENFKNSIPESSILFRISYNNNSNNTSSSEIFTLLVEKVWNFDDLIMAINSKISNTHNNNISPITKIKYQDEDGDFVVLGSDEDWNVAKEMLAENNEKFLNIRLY

[2] = target: T2, PB_(Cdc24)(D833G) (Saccharomyces cerevisiae, UniProt P11433 668-854, D833G); test: as above; settings: both partners purified
T2 construct: also called D833G mutant; source: E. coli BL21DE3, purified (IMAC, optional size exclusion chromatography)
T2 sequence (looked up): T1 sequence (looked up) with D166G

B1: PB_(Bem1)-SNAP (domain or fragment, Saccharomyces cerevisiae, UniProt P29366 431-551, looked up)
chain: ASQTSNFASTNQDNTLTGEDLKLNKKLSDLSLSGSKQAPAQSTSGLKTTKIKFYYKDDIFALMLKGDTTYKELRSKIAPRIDTDNFKLQTKLFDGSGEEIKTDSQVSNIIQAKLKISVHDI
modifications: BG-Biotin covalently on the SNAP tag
notes: Bem1, S. cerevisiae, PB domain, residues 431-551; also called Bem1 PB domain; source: E. coli BL21DE3, purified (IMAC, optional size exclusion chromatography)
Binder B1 has a Kd [1] of 21 nM and a Kd [2] of over 3200 nM.
